The data set is described as follows: yeast display, Sf9 membrane polyspecificity reagent, FACS + sequencing; frameworks hold sequencing errors. The procedure, abridged: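 After 36–48 hours of galactose induction, yeast (Saccharomyces cerevisiae BJ5465) displaying a synthetic nanobody library were stained at 4 °C for 1 hour with 10% biotinylated, detergent-solubilized Sf9 membrane reagent. Streptavidin microbeads enriched the stained cells before FACS sorting into low and high (top ~1%) gates on anti-HA and streptavidin fluorescence. Each clone's polyreactivity label reflects its gate of origin.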
For the sequence “QVHLVESGGGLVQAGGSLRLRCAASGGTSRSYAKGWYRPAPGKERELVAAISWRGGRTYYADSVKGRFTISRDNAKNTVYFQMNRLKPEDTAVYDCAARLPGYYGIGDYWGLGTQVTVSS”, the “polyreactivity (PSR sort gate)” value is listed as “high polyreactivity”.

In the case of “QVHLVESGGGLVQAGGSLRLSCAAAGRTFSSYAMAWYRQAPWQERELVAAITSGGTTYYADSVKGRFTISRDNAKNTVDLQMNSLKAEDPAFYYCARRSYLYDSYLTKKKYYDYCGQGTQVTVSS”, the “polyreactivity (PSR sort gate)” value was “low polyreactivity”.

As for “QVHLVESGGGLVQAGGSLRLSCAASGFIFEPYAMGCYRQAPWKEWELVAAISSGGSTYADSVKGRFTISRDNAKNTVYLQMISLKPEDTAVYYCAADSYYSVWGFYFWGQGTQVTVSS”, the “polyreactivity (PSR sort gate)” value is recorded as “low polyreactivity”.

“QVHLVESGGGLVQAGGSLRLSCAASGFIFKFDAMGWYRQAPGKEREMVAAITASSGRTNYADSVKGRFTISRDNAKNTVYLHMNSLKPEDTAVYFCAARRWPKYSAYRYDYWGQGTQVTVSS”: the “polyreactivity (PSR sort gate)” value was “high polyreactivity”.

Turning to “QVHLVESGGGLVQAGGSLRLSCAASGFIFKKYAMGWYRQAPGKERELVAAIDSSGSTTYADSVKGRFTISRDNAKNTVYLQMNSLKPEDTAVYYCAAPFTVYRHAPDMDYWGQGTQVTVSS”, the “polyreactivity (PSR sort gate)” value was “low polyreactivity”.

Consider “QVHLVESGGGLVQAGGSLRLSCAASGFIFQYYAMGWYRQAPGKEREMVAAINRGGGTHYADSVQGRFTISRDNAKNTVYLQMNSLKPEVTAVYYCNKVYYWPGSRPSRYEYWGQGTQVTVSS”, for which the “polyreactivity (PSR sort gate)” value is given as “low polyreactivity”.

In the case of “QVHLVESGGGLVQAGGSLRLSCAASGFIFRIYAMGWYRQAPGKERELVAAINSSVSTSYADSVKGRFTISRDNAKNTVYLQMNSLKPEDTAVYYCAASRWPYPSYLYIVDSWGQGTQVTVSS”, the “polyreactivity (PSR sort gate)” value is “low polyreactivity”.

“QVHLVESGGGLVQAGGSLRLSCAASGFIFYSNMGWYRQAPGKESEFVAAITWRGGSTYADSVKRRFTISRDNAKNSVYLQMNILKPEDPAVSYCAGESYRAHTPGHPSCTRFGYWGQGTHVTVSS”: the “polyreactivity (PSR sort gate)” value is “high polyreactivity”.

As for “QVHLVESGGGLVQAGGSLRLSCAASGFTFDTYDMGWYRQAPGKERELVAAIDRSGVSTYYADSVKGRFTISRDTAKNTVYLQMNSLKQEDPAVYYCAADLWQYDIASWDYTYDYWGQGTQVTVSS”, the “polyreactivity (PSR sort gate)” value is “low polyreactivity”.

Regarding “QVHLVESGGGLVQAGGSLRLSCAASGFTFEGYAMGGYRQQPGKEREYADSVKGRFTISRDNAKNTVYLQMNSLKPEDTAVYYCASTSYVSSSRTIYSGFVEFEYLGQGTQVTVSS”, the “polyreactivity (PSR sort gate)” value is “low polyreactivity”.

Consider “QVHLVESGGGLVQAGGSLRLSCAASGFTFESYAMGWYRQAPGKERELVAAISDGGGDTYYADSVKGRFTISRDNAKNTVYLQMNSLKQEDTAVYYCAAEWDGNWYRGAGGYDYWGQGTQVTVSS”, for which the “polyreactivity (PSR sort gate)” value was “low polyreactivity”.

“QVHLVESGGGLVQAGGSLRLSCAASGFTFNGYAMGWYRQAPGKESEMVAGITRRGGITYYADSVKGRFTISRYNAKNTVYLQMNSLKPEETAVYYCARDYIGHALIHHASLYYYWGQGTQVTVSS”: the “polyreactivity (PSR sort gate)” value is listed as “high polyreactivity”.

Consider “QVHLVESGGGLVQAGGSLRLSCAASGFTFVRNAMGWYRQAPGKERELVAAISGSGGSTYYADSVKGRFTISRDTAKNTVYLQMNSLKPEDTAVYYCAAGWTRGWSLDYYYWGQGTQVTVSS”, for which the “polyreactivity (PSR sort gate)” value is on record as “high polyreactivity”.

In the case of “QVHLVESGGGLVQAGGSLRLSCAASGFTFVRYAMGWYRQAPGKERELVASISYSGGSTYYADSVKGRFTISRDNAKNTVYLQMNSLKPEDTAVYYCAALHRINTLLLPMDYWGQGTQVTVSS”, the “polyreactivity (PSR sort gate)” value is reported as “high polyreactivity”.

As for “QVHLVESGGGLVQAGGSLRLSCAASGFTIAFNAMGSYRQAPGKERELVASITGGGSTNYADSVKGRFTISRDNAKNTVYLQMNSLKPEDTAVYYCAARYFWAWERDLFLEFDYWGQGTQVTVSS”, the “polyreactivity (PSR sort gate)” value is recorded as “low polyreactivity”.

With “QVHLVESGGGLVQAGGSLRLSCAASGFTLANYAMGWYRQPPGKERELVAAIDYSGGGTYYADSVKGRFTISRDNAKNTVYLQMNSLKPEDTAVYYCAARRWSYYSAKYDYWGQGTQVTVSS”, the “polyreactivity (PSR sort gate)” value is listed as “low polyreactivity”.

“QVHLVESGGGLVQAGGSLRLSCAASGGIFFPNAMGWYRQAPWKERELVAAISWSAGSTYYADSVKGRFTISRDNAKNTVYLELNSVKPEDTAVYYCAAAGSKNTVLYGYYYWGQGTQVTVSS”: the “polyreactivity (PSR sort gate)” value is given as “low polyreactivity”.

As for “QVHLVESGGGLVQAGGSLRLSCAASGGIFYPNAMGWYRQAPGKERELVAAISSGGGSTYYADSVKGRFTISRDNAKNTVYLQMNSLKPEDTAVYYCAASAYSLKSDVEYDYWGQGTLVTVSS”, the “polyreactivity (PSR sort gate)” value is “low polyreactivity”.

In the case of “QVHLVESGGGLVQAGGSLRLSCAASGGTFSVYGMGWYRPAPGKERELVAAITVTGGRTYYADSVKGRFTISRDNAKNTVYLQMNSLKPVDSAVYYCNTLPWSRTKRDYWGQGTQVTVSS”, the “polyreactivity (PSR sort gate)” value is “low polyreactivity”.

On to “QVHLVESGGGLVQAGGSLRLSCAASGIIFPSYAMGWYRQAPGKERELVAAIDGSGGITYYADSVKGRFTISRDNAKNTVYLQLNSLKPEDTAVYYCNAEREYYDYGNDDYWGPGTQVTVSS”, for which the “polyreactivity (PSR sort gate)” value is “low polyreactivity”.

Turning to “QVHLVESGGGLVQAGGSLRLSCAASGIIFYDNTMGWYRQAPGTERELVASITWRGGSTYYADSVKGRFTISRDNAKNTVYLQMNSLKPEDTAVYYCNADSSDDYDYWGQGTQVTVSS”, the “polyreactivity (PSR sort gate)” value is reported as “low polyreactivity”.

With “QVHLVESGGGLVQAGGSLRLSCAASGIIFYYYTMGWYRQPPGKERELVASISRDGGSTHYADSVKGRFTISRDNAKNTVYLQMNSLKPEDTAVYYCAARYPTGSSYAFYRRKVYYWGQGTQVTVSS”, the “polyreactivity (PSR sort gate)” value is listed as “high polyreactivity”.

Turning to “QVHLVESGGGLVQAGGSLRLSCAASGITFAWYAMGRYRQAPGKERELVAAITRGGGSTYYADSVKGRFTISRDNAKNTGYLQMNSLKPEDTAVYYCAARPYSYPYGYWGQGTQVTVSS”, the “polyreactivity (PSR sort gate)” value is “low polyreactivity”.

Take “QVHLVESGGGLVQAGGSLRLSCAASGITFDLYAMGWYRQAPGKERELVAASTYYADSVKGRFTISRDNAKNTVYLQMNSLKPEDTAVYYCNTREPVTYDYWGQGTQVTVSS”: the “polyreactivity (PSR sort gate)” value is recorded as “high polyreactivity”.

As for “QVHLVESGGGLVQAGGSLRLSCAASGITFRRNAMGWYRQAPGKERELVARITVSGGTTYYADSVKGRFTISRDYAKNTVYLQMNSLKPEDTAVYYCAKVWHSSRVSPYDYWGQGTQVTVSS”, the “polyreactivity (PSR sort gate)” value is recorded as “low polyreactivity”.

For “QVHLVESGGGLVQAGGSLRLSCAASGITFTRYNMGWYRQAPGKERELVASIRRSGSTNYADSVKGRFTISRDNAKNTVYLQMNSLKPEDTAVFYCAAVNYGYPKPYDYWGQGTQVTVSS”, the “polyreactivity (PSR sort gate)” value was “high polyreactivity”.

For the sequence “QVHLVESGGGLVQAGGSLRLSCAASGLIFGDYAMGWYRQAPGKERELVAAITGSVTRRYYADSVKGRFTISRDNAKNTVYLQMNSLKPEDTAVYYCATVGYPYTLWHQMDYWGQGTQVTVSS”, the “polyreactivity (PSR sort gate)” value is “low polyreactivity”.

Consider “QVHLVESGGGLVQAGGSLRLSCAASGLIFNIYAMGWYRQAPGKERELVAAISKSGGSTYYADSVKGRFTISRDNAKNTVYLQMNSLKPEDTAVYYCAVVRNSYRVLRLNYWGQGTQVTVSS”, for which the “polyreactivity (PSR sort gate)” value is recorded as “high polyreactivity”.

Regarding “QVHLVESGGGLVQAGGSLRLSCAASGLIFRRYAMGWYRQAPGKERELVAVISSGGRTYYADSVKGRFTISRDNAKNTVYLQMNSLKPEDTAVYYCAARTRSYWGTYGSYHYDYWGQGTQVTVSS”, the “polyreactivity (PSR sort gate)” value is reported as “high polyreactivity”.

For “QVHLVESGGGLVQAGGSLRLSCAASGLIFSDYAMGWYRQAPGKERELVAAIRSGGRTYYADSVKGRFTISRDNAKNTVYLQMNSLKPEDTAVYYCNKLYRRSPVPREYDYWGQGTQVTVSS”, the “polyreactivity (PSR sort gate)” value is “high polyreactivity”.

As for “QVHLVESGGGLVQAGGSLRLSCAASGLILSYNAMAWYRQAPGKERELDAAISYSGGSTYYADSVKGRFTITRDNAKNTVYLQMNSLITEDSAVYYCAAVWRRQGSAYLGSYGYDYWGQVTQVTVSS”, the “polyreactivity (PSR sort gate)” value was “high polyreactivity”.

Consider “QVHLVESGGGLVQAGGSLRLSCAASGLTFHRYAMGWYRQAPGKERELVAAINYSGGRTYYADSVKGRFTISRDNAKNSVYLQMNCLKPEDTEVYYCAAPRASGYYWGQGTQGTVSS”, for which the “polyreactivity (PSR sort gate)” value is reported as “high polyreactivity”.

As to “QVHLVESGGGLVQAGGSLRLSCAASGLTFWAYTLGWYRQAPGQERELVAAITSSGGRTYYADSVKGRFTISRDNAKNTVYLQMNSLKPEDTGVYYCNARIFRSPTPYDYWGQGTQVTVSS”, the “polyreactivity (PSR sort gate)” value is “high polyreactivity”.

Turning to “QVHLVESGGGLVQAGGSLRLSCAASGNTFQRYTMGWYRQAPGKERELVAAITWSGGNTYYADSVKGRFTISRDNEKNTVYLQMNSLKPEDTAVYYCNADYPTTAYDYWGQGTQVTVSS”, the “polyreactivity (PSR sort gate)” value was “low polyreactivity”.

Take “QVHLVESGGGLVQAGGSLRLSCAASGRIFAGYGMGWYRQAPGKERELVAAISSGGSTYYADSVKGRFTISRDNAKNPVYLQINSLKPEDTAVYYCAADTYTYYDYMARYYYWGQGTQVTVSS”: the “polyreactivity (PSR sort gate)” value was “low polyreactivity”.

As to “QVHLVESGGGLVQAGGSLRLSCAASGRIFAYYTMGWNRQAPGKERELVARITKNGGSTYYAESVKGRFTISRDNAKNTVYLQMNSLKPEDTAVYYCNADSGYTGRRTRERYYYWGQGTQVTVSS”, the “polyreactivity (PSR sort gate)” value is listed as “high polyreactivity”.

For “QVHLVESGGGLVQAGGSLRLSCAASGRIFGFYAMALYRQSPGKEREFVASISVRGASTYADSVKGRFTISRDNAKNTVYLQMNSLKPEDTAVYYCNAYGRVSKRYGYWGQGTQVTVSS”, the “polyreactivity (PSR sort gate)” value is reported as “high polyreactivity”.

In the case of “QVHLVESGGGLVQAGGSLRLSCAASGRIFGVNAMGWYRQAPGKERELVAAITWSGGSTYYADSVKGRFTISRDNAKITVYLEMNSLKPEDTAVYYCAVEGQFDDGWAWYDYWGQGTQVTVSS”, the “polyreactivity (PSR sort gate)” value is listed as “high polyreactivity”.

For “QVHLVESGGGLVQAGGSLRLSCAASGRIFGYYAMGWYRQAPGKERELVARISSSGGSTYYADSVKGRFTISRDNAKNTVYLQMNSLKPEDTAVYYCNTASNRYPGWRAEFDYWGQGTQVTVSS”, the “polyreactivity (PSR sort gate)” value was “low polyreactivity”.

Consider “QVHLVESGGGLVQAGGSLRLSCAASGRIFQRNVMGWYRQAPGKERELVASITGGGTTNYADSVKGRFTISRDNAKNTVYLQMNSLKPEDTAVYYCAKGYGASNDPGYVRKRYGYWGQGTQVTVSS”, for which the “polyreactivity (PSR sort gate)” value is “low polyreactivity”.

These data come from the nanobody polyreactivity screen of Harvey et al. (2022).
